Reference: the DeepSol protein solubility set

Assay: soluble on expression in E. coli; label from the status in PepcDB or PDB records

| Sequence | soluble on expression in E. coli |
| --- | --- |
| MLSMCNKYPDFDDEERVRRVDDDFRDVITVFDAPFEGKSPSPAVIVFDELVDSDGSSKYLNFKMEQSYEKVDEIPEKIDAERIRYAIHLGSHSQKNVLQIFQSAYSDGYTEEDKNGKVPVGGKVKCAETETGFRTKINCENVVTAVNEYMDSNREKFGELRIETLNKAERNLDGYIYFSFLKQKPCRNLFIRIPPLE | not soluble |
| MLSRLSSIFRYFGTTSTIATMSPKKVTIIGSGNWGSAIARIVGSTTKSFPDEFDPTVRMWVFEEIVNGEKLSEVINNRHENIKYLPGKVLPNNVVAVTDLVESCEGSNVLVFVVPHQFVKGICEKLVGKIPADTQAISLIKGVSTEKRGGLKLISEEIKEILKIEVSVLMGANLAPEVANDNFCEATIGCKRKAEDGPLLKKLFHTDNFRINVVEDAHTVELCGALKNVVACAAGFTDGLGYGDNTKAAVIRLGLMETTKFVEHYYPGSNLQTFFESCGIADLITTCYGGRNRKVCEAFVKTGKSMAEVEKELLNGQSAQGPLTAEEVYLMMHKTGLDAKFPLFTAVHKICAGEMKPAELVDCLRNHPEHM | not soluble |
| MLSRNIGAVRGAHKAATTKPVEKVAKLGNGLTVGTIDSHKPIAHLVLAFRAGSRYEKANQAGLSHTIRNFVGRDTQEYFGNTVVWTLSQTGGVLKSFTSRDLFGVSLTIPRESTSVGLSVLGQVAGNPGFKPWEVEDVLPTMRADNGYRTAYDLVVDQIHKAAYRNGGLGNSIYAPCSKIGSICTSTLSSFAEQHFVTGNGVLFATNAVHDDLLLYGDNHAPIRSGNAASPSSSAYKGGEVRRDADSKYAHVIVAGEGAAGNNTKALATQAVLLTALGNSSPVKFNTGTTGVIAKAVGQNGSASAFQAVHADSGLAGVYLVVEGSQANQAVSNVVGALKSLKVADIEAVKKQAFNNALRASAHSDNFAIERASQLFQSQDNYIQQIPNVSASDVEVAAKKLTTKLSLASYGNVSEVPYVDTL | not soluble |
| MLSRPSGTVAKTEFQLRRNVLPALKRFVSAAAKSAGVQEKTTVLENGLRVSSVELNGATSSIVLAFRAGSRYQPANKQGLTHLIRNSVGRDAPNFPGLALVWNTAQNGGNLTAVSNRDVLAIEVNVVRDQSAVVLSLLGQLGNNAFKPWDVEDVKHDTLPADATYLTGTTIAFEQLHQAAFRNGGLGLSNYSVNNVSAKDLSAFAKERLVAGEAVLVGVNVDHDTLVQAGSTQFPLAQNQPAKATPAKYFGGEARKDGRGNRSYVAIAGEGSAITSVKDVAVQAVVAQILLNAAQKVTSEAISVNVNYQDSGLVGVQFAACNTQITQVTKSIASAIKSAKADGLDNAKNTAAVQVLSDAQHASEVALEKATQVLAGVEVSPREFADAIRAVTAQDVTQALSRVNGKLSLAAYGSTSLVPYLDEL | not soluble |
| MLSTGLDELVYRSNLIGSDRAVCNWGGGNTSMKTVEKDFRGREIAVMWVKGSGSDLATMGAKNFTGLNLEDIRPLIEREEMSDEEMVEYLGHCMIDRNHPRPSIETLLHAFLPFKHVDHTHPDAIISICCADNGKEIAKNLFGDRFVWVPYVRPGFSLSKLIAEGVQKNPHAELVLMEKHGLVVWGETAKESYDRTISVINEAEAYIRSRINESVIFGGGKLEHHHHHH | not soluble |
| MLSTLSKSARLNQTRFIRLSHSAAAAKDAKPKKVAAVDSPSFVMNLFRGKAVTDQVFPYPLNMTDEQKETLGMVMSPLEKMLVEVNDVVKNDETSDIPRAVLDQFAELGTFGVLVPPELEGSGFNNSQMARVAEIVGAYDLGFGVVMGAHQSIGYKGILLEGTDAQKQKYLPDLATGRKFAAFALTEPTTGSDASSVRTRAELSADGKHYVLNGGKIWISNGGFADVFTVFAQTPVKQADGSTKDKMSAFIVERAFGGVTSGPQEKKMGIKGSNTTEVHFDNLKIPVENLLGKEGEGFKVAMNILNNGRFGIPAACTGAMKHCIQKTVDHITTRVQFGKKLQEFGNIQEKLVEMISKLYATESIVYMLSSNMDRGIKEYQLEAAIGKVLASENAWLVCDDAIQVHGGMGFMRETGLERVLRDLRIFRIFEGANDVLRLFIALTGAQHAGKHLAEQASGVGGLIGLAVSRVTGGNTGSNFGQVVDASLQDSAKVLDQQIALFGQTVQGLLMKHKKGIIDRQYEMHRVADAAINIYSSAAVLSRATYAIKNKSSSADFERKVATYYVDKAMKSSNRFLKDAGSGVENASKVATIESLAKEVCGNGGLTLQHPVEL | not soluble |
| MLTAQTKNTQTLMPLTERVNVQADSARINQIIDGCWVAVGTNKPHAIQRDFTNLFDGKPSYRFELKTEDNTLEGYAKGETKGRAEFSYCYATSDDFKGLPADVYQKAQITKTVYHHGKGACPQGSSRDYEFSVYIPSSLDSNVSTIFAQWHGMPDRTLVQTPQGEVKKLTVDEFVELEKTTFFKKNAGHEKVVRLDKQGNPMKDKNGKPVYKAGKLNGWLVEQGGYPPLAFGFSGGLFYIKANSDRKWLTDKDDRCNANPGKTPVMKPLTSEYKASTIAYKLPFADFPKDCWITFRVHIDWTVYGKEAETIVKPGMLDVRMDYQEQGKKVSKHIVNNEKILIGRNDEDGYYFKFGIYRVGDSTVPVCYNLAGYSERLE | soluble |
| MLTDLSIRNLAIIDSLHVSFDRGLTVLTGETGAGKSIIIDAVNLIMGGRASAELVRTGEEEATVEALFSLPTDAPLGQRLAAMGLDCDGELLVKRVVSRSGRNRVFIGGGLSTLAMLSDISRELVNIYGQHESQTLLRPENHLRLLDGFAGLDSLRADYAAIFDRYRETEARLRELDEGEREAARRLDLLSFQVEEIHAAALAPGEEEALAGERELLVNAERLSRGSEEAYEALYGDESSVLHLLARVKGRVAEISGVDASLAPLLDVVESAAAQLEDAALTLRGYGARIEADPARLEAVDERLDLIRRLKKKYAPTVEEIIAYGEEAAREMELLLNRDRTRSDLDRELETLAGRVRETGHGLSAKRHEAAKRLKAAMEREIHELAMKHALFDVAFEELPEPRQTGLDSVTFLFSPNPGEEPKPLARIASGGELSRLMLALKQVHPESDVPTLIFDEVDTGIGGATSALVGEKLKRVSRAQQVLCITHHPQVAAFADRHYKVEKRVEGGRTATAVTPLEGEDRVAEMARMLGGVTITGTTLDHAREMIEGARRAAVGG | not soluble |
| MLTSAQTRSLFRNNIFYKYRTAISVCQSIGRSIRSEEDWAYTFTLDSRFPKYISDHRNLINESVSFYEKRIPDFPSEKSIQKLKNEIFRNLPFLEHHHHHH | not soluble |
| MLTSHFPLPFAGHRLHIVDFDASSFREHDLLWLPHHDRLRSAGRKRKAEHLAGRIAAVHALREVGVRTVPGMGDKRQPLWPDGLFGSISHCATTALAVISRQRIGIDIEKIMSQHTATELAPSIIDSDERQILQASLLPFPLALTLAFSAKESVYKAFSDRVTLPGFNSAKVTSLTATHISLHLLPAFAATMAERTVRTEWFQRDNSVITLVSAITRVPHDRSAPASILSAIPR | not soluble |
| MLTSKPEIKNSELNSYLVGGAVRDKLLNRPIKDEDYLVVGASIEQMIKLGYHQVGKDFPVFLHPKTKAEYALARTERKQGQGYTGFSCYFAPDVTIEQDLLRRDLTVNAMAMDHNGKIIDPYNGQNDLNDRILRHVSDAFIEDPLRVLRVARFAARYHKYGFTIADETLTLMQEISASGELKCLTPERVWQEMQLSLADGGANSDTNSGNPEVFFEVLQQCNALEELWPELAVLWGIPNPALWHPEICSGIHTMMVLQQAVLLTQAIPDEHSDHRTAVRFAALCHDLGKGVTSDKLWPSHKGHETSGLPLVERICGQLKVPSHYKQLALKVCEFHLHCHKAFELKASTLLKMFNQLDIWRKPEEFDLFLMACKSDFLGRLGFENRAYPQEQYLQAAVKAARKVTAQPFLEKGLQGLAIKEAMAKERLSVIANIKADFAHLNPTPQ | not soluble |
| MLYPDTGRRSLVQYLSGSTGEPDGRTENRRMFMDTIGEAVLRSCQPYVRTVFNSVVVLNIMRTTHIVSMDVAHLANISASGQMFNYSLSFLGMKHVILMLWRCW | not soluble |
| MLYQPSLLKSRLTPAPPGFSFQPQPLLNSDMDPVRNLESLGNYTVYQDSSQCFWQHQNFTSNREHNPALRKTKICDHWRRSGSCSYGDACWYAHGEDDLRKVVRIDRSNEEENERPATAEIQKSPTKRASTNVKGLTVNIPSNTAFKEQNSSMPLSPAQERWISMSIGAVPPPTSSAAEKDAISSLSKNGVEQEQEKKHEICSRDDDIDDYGFLSPNPFPYPQQSMFSAGFPSHGHHQRSSNRATQGVPSQQFGGPVNIPGQDPNRLGSGAYHIPPQHQRSRSNVRTSREVGGPPPQFQQAIWNVAGEIYQRQKDIEIGGQRVGPNDRQPTQQKNSEMDRLLSKLKMKDLNYLRFMIERGYINERDVSRQTSSDQMSNGHHFNAPMTPPYHPRLAGNEPNTSDCHYHGTGNRLSNFMPGRHRPPHQHPIHHHHQSQHQLHQHQQYLHHAAQQYRYSHQQGPQHPFAALLSPPEISESLLPPDDSFSIWLEPKPKKQSGAMTRTRGAATINESSSAASLLTKMDALRSDKYPITDEEMMMANDFVRQGDRDDKLSSSESSSPVVMSLMELLSNENLLDQVATEKPKCSMFDFDTLKIAETLKEPLQSSECSTTTSSKMTCSPMFFFVDEKTPNYDGSGSKSLFTPSSSAGQTPSFLEPCDFFAATGSCPFGDACHQSHSI | not soluble |
| MMAEFETVNDVKQLNGLALAYIGDAVYEVYVRRHLLAGGSVRPHELHRRAVRYVSARAQARVILALLDEGVLTEEEKDIVRRGRNAKSGTIPKNTDVQTYRHSTAFEALIGYHFLVNNEKRVDELIGRSFAIIEREERALE | not soluble |
| MMDLELPPPGLPSQQDMDLIDILWRQDIDLGVSREVFDFSQRRKEYELEKQKKLEKERQEQLQKEQEKAFFAQLQLDEETGEFLPIQPAQHIQSETSGSANYSQVAHIPKSDALYFDDCMQLLAQTFPFVDDNEVSSATFQSLVPDIPGHIESPVFIATNQAQSPETSVAQVAPVDLDGMQQDIEQVWEELLSIPELQCLNIENDKLVETTMVPSPEAKLTEVDNYHFYSSIPSMEKEVGNCSPHFLNAFEDSFSSILSTEDPNQLTVNSLNSDATVNTDFGDEFYSAFIAEPSISNSMPSPATLSHSLSELLNGPIDVSDLSLCKAFNQNHPESTAEFNDSDSGISLNTSPSVASPEHSVESSSYGDTLLGLSDSEVEELDSAPGSVKQNGPKTPVHSSGDMVQPLSPSQGQSTHVHDAQCENTPEKELPVSPGHRKTPFTKDKHSSRLEAHLTRDELRAKALHIPFPVEKIINLPVVDFNEMMSKEQFNEAQLALIRDIRRRGKNKVAAQNCRKRKLENIVELEQDLDHLKDEKEKLLKEKGENDKSLHLLKKQLSTLYLEVFSMLRDEDGKPYSPSEYSLQQTRDGNVFLVPKSKKPDVKKN | not soluble |
| MMDPISIINKYYTEGTNQYHILVEHSRDVAALALRIVEIHPELQADRLFVEEAAMLHDIGIFLTDAESIACFGKEPYILHGYMGANILRKEGYPRHALVCERHTGSGLTSEDIAARQIALPPGIYTPQSIEEKIVCYADKFFSKTKLHRQKKLEDVRRSMLSYGADSLRRFDEMHALFKIPLG | soluble |
| MMEGLDDGPDFLSEEDRGLKAINVDLQSDAALQVDISDALSERDRVNFTVHTKSSLPNFKQNEFSVVRQHEEFIWLHDSFVENEDYAGYIIPPAPPRPDFDASREKLQKLGEGEGSMTKEEFTKMKQELEAEYLAIFKKTVAMHEVFLCRVAAHPILRKDLNFHVFLEYNQDLSVRGKNKKEKLEDFFKNMVKSADGVIVSGVKDVDDFFEHERTFLLEYHNRVKDASAKSDRMTRSHKSAADDYNRIGSSLYALGTQDSTDICKFFLKVSELFDKTRKIEARVSADEDLKLSDLLKYYLRESQAAKDLLYRRSRSLVDYENANKALDKARAKNKDVLQAETSQQLCCQKFEKISESAKQELIDFKTRRVAAFRKNLVELAELELKHAKGNLQLLQNCLAVLNGDT | soluble |
